Measurements published in the supplement of paper PMC10567573.

B1: CDC14A (parent)
chain: GPHPKSKIENGYPLHAPEAYFPYF

Variants of: B1
Experiment: protein stability index of a GFP-peptide fusion (GPS, HEK-293T) (PSI 1-6); higher = more stable
Settings: c terminus: a fixed tail appended
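Note: lentivirally expressed fusions sorted by FACS into six bins by GFP to DsRed ratio, PSI derived from sequencing read proportions per bin multiplied by bin number.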

Protein stability index: each site, then its substitutions
P13: C 1.97 | L 1.95 | T 1.96 | N 2.68 | Y 1.88 | M 1.68 | A 2.57 | W 1.58 | E 2.94 | Q 2.43 | V 2.05 | D 2.81 | S 2.22 | F 1.92 | G 2.39 | I 1.43 | K 1.88 | R 2.06 | H 1.92
G1: V 1.89 | L 2.05 | Y 1.51 | Q 2.03 | W 1.73 | R 1.88 | K 1.57 | S 1.99 | T 2.7 | M 2.51 | N 2.56
A16: N 2.25 | F 1.82 | Y 2.29 | V 2.21 | T 2.41 | K 2.12 | S 2.14 | D 2.45 | R 2.35 | M 2.01 | I 2.04 | Q 2.49 | H 2.32 | G 2.77 | C 2.84 | E 2.4 | L 1.95 | W 1.99
H15: D 2.63 | E 2.79 | T 2.74 | L 1.76 | V 2.53 | G 2.59 | M 1.96 | Q 1.93 | K 2.7 | F 1.7 | P 2.57 | R 2.29 | Y 1.68 | A 2.45 | I 1.87 | N 2.37 | S 2.83 | C 2.23 | W 1.2
K7: F 1.99 | G 2.84 | M 1.91 | P 2.72 | V 2.59 | S 2.31 | E 2.27 | T 2.43 | Q 1.96 | C 2.23 | N 2.57 | W 1.57 | H 2.22 | Y 1.84 | A 2.33 | D 2.13 | L 2.06 | R 2.43 | I 1.98
A19: C 1.8 | G 2.22 | D 2.2 | E 2.36 | I 2.38 | F 2.39 | H 2.22
N10: K 2.65 | V 2.06 | H 2.57 | R 1.55 | T 1.82 | W 1.89 | M 2.31 | G 2.18 | C 2.05 | Y 1.79 | E 2.29 | P 2.52 | I 1.63 | D 1.96 | A 2.51 | F 2.51 | L 2.19 | Q 2.99 | S 2.97
H3: M 2.19 | I 2.48 | T 1.91 | A 2.4 | S 2.55 | N 2.54 | Q 2.7 | D 2.01 | F 2.02 | E 2.46 | R 2.19 | K 2.46 | G 2.54 | Y 1.9 | L 2.19 | C 2.01 | W 1.66 | V 2.41
G11: V 2.03 | K 2.44 | Y 2.12 | S 2.09 | F 1.72 | L 2.56 | T 1.75 | H 2.17 | N 2.07 | M 2.09 | P 3.76 | A 2.41 | Q 2.31 | R 2.5 | E 2.52 | I 1.64 | C 1.73 | W 1.55 | D 2.85
Y12: R 2.58 | A 2.99 | M 2.74 | V 2.19 | F 1.78 | Q 2.7 | N 3.03 | S 2.73 | D 3.24 | T 3.07 | I 2.82 | K 2.69 | H 2.99 | C 2.42 | E 3.56 | L 2.46 | G 2.67 | W 1.86
